In publication PMC6170708 one finds percent of dimers converted to capsids (the pair that is blocked) and stoichiometry N data, which are given here for two substances.

The target in experiment [1] is recombinant HBeAg dimer (construct Cp(−10) 149 C48A.C107A) (Hepatitis B virus (strain not stated)) (UniProt P03147). Briefly: AUC.
The target in experiment [2] is recombinant HBcAg assembly domain dimer (construct Cp1–149.C48A.C107A) (Hepatitis B virus (strain not stated)) (UniProt P03147). As to the kind of experiment: AUC.

Regarding “recombinant HBeAg dimer (construct Cp(−10) 149 C48A.C107A) (from UniProt P03147 1-149) (domain or fragment)”, the percent of dimers converted to capsids (the pair that is blocked) in experiment [1] amounted to 40%.

With “recombinant HBcAg assembly domain dimer (construct Cp1–149.C48A.C107A) (from UniProt P03147 1-149) (domain or fragment)”, the stoichiometry N (as a rule, the number of molecules, sites or subunits per partner or assembly) in experiment [2] stood at 2.
